Test results taken from patent publication US6660841.

Molecular target: Gal4-DBD/CREM (UniProt P04386)
Experiment: cell-based or functional assay

activity in yeast (β-galactosidase reporter), compared with ACT (fold (against ACT)): 2
Substance: ACT/Gal4-AD (from UniProt Q9WTX7 1-284)
